Experimental data as given in patent US20250059285A1 (ARGENX, published 2025).

Columns and labels:
[1] = biological target: T1, human Gal10-His (human, UniProt Q05315 2-142, limits assumed); assay: SPR Biacore 3000, control on Gal10-His-coated CM5
T1 construct: also called hGal10-His; human Gal10-His tagged; not shown: His tag
T1 sequence: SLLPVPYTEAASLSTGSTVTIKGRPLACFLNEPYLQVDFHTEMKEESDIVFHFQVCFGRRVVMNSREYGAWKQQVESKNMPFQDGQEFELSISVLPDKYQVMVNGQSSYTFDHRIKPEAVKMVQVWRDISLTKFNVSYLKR
Procedure: The off-rate of the remaining 25 clones of the ELISA experiment was determined by SPR on a Biacore 3000 instrument. Periplasmic extracts were injected on a CM5 sensor chip coated with 2500 RU Gal10-His.

[2] = biological target: T1, human Gal10-His; assay: BLI Octet RED96, Gal10-His captured on anti-Penta-His tips
[3] = biological target: T1, human Gal10-His; assay: SPR Biacore 3000, purified hFab 20 nM on Gal10-His-coated CM5
[4] = biological target: T1, human Gal10-His; assay: summary of periplasmic extract screening (BLI or SPR); control
[5] = biological target: T1, human Gal10-His; assay: SPR Biacore 3000, hFab on human Gal10-His captured by anti-His CM5
Procedure: (§1) The binding properties of the selected clones to human and cynomolgus Gal10 was analyzed via a capture method established on a Biacore 3000 instrument.
(§2) For this purpose, two approaches were used. In the first, two concentrations of the selected clones were applied on cynomolgus (WGS isoform) Gal10-His capture on a CM5 chip coated with a monoclonal anti-His antibody. The second approach involved a serial dilution that was applied on human or cynomolgus (WGS isoform) Gal10-His in the same set-up.

[6] = biological target: T2, cynomolgus Gal10-His (WGS isoform) (cynomolgus); assay: SPR Biacore 3000, hFab on cynomolgus Gal10-His (WGS) captured by anti-His CM5
T2 construct: also called cynomolgus antigen
Procedure: as §1, §2

[7] = biological target: T1, human Gal10-His; assay: SPR Biacore 3000, purified hFab (2 conc.) on Gal10-His captured by anti-His CM5
Procedure: The binding properties of the selected Fab clones to human Gal10 were analyzed via a capture method established on a Biacore 3000 instrument. Two concentrations of the selected Fab clones were tested on human Gal10-His immobilized on a CM5 chip coated with a monoclonal anti-His. As controls, the clone g7B07 and g7B07_N53A were injected at the beginning and the end of the run. Briefly, a CM5 chip was coated with a monoclonal anti-His antibody (4000 RU), then a fixed concentration of the human Gal10-His (25 μg/mL) was captured on the anti-His chip before receiving two concentrations of the clones in the human Fab backbone.

[8] = biological target: T1, human Gal10-His; assay: SPR Biacore 3000, hFab on captured human Gal10-His; column head prints (M), the text gives nM
Procedure: as §1, §2

[9] = biological target: T2, cynomolgus Gal10-His (WGS isoform); assay: SPR Biacore 3000, hFab on captured cynomolgus Gal10-His (WGS); column head prints (M), the text gives nM
Procedure: as §1, §2

B1: g7B07 (human Fab) (Fab, V domains shown)
VH: EVQLLESGGGLVQPGGSLRLSCAASGFTFRSYDMSWVRQAPGKGLEWVSAIKNGGGITYYADSVKGRFTISRDNSKNTLYLQMNSLRAEDTAVYYCATTHGIGTLGFGSWGQGTLVTVSS
VL: SYELTQPLSVSVALGQTARITCDGNNIGSKSAQWYQQKPGQAPVLVIYADEYRPEGIPERFSGSNSGNTATLTISRAQAGDEADYYCQVWDGSAAVFGGGTQLTVL
notes: Human Fab backbone; their format is not certain; also called g7B07-hFab; germlined 7B07
Fold off-rate compared to g7B07 [1]: 1 fold
koff [1]: 0.00218 s⁻¹
kd fold difference to reference [2]: 1 fold
koff [2]: 0.00754 s⁻¹
Fold off-rate compared to g7B07 [3]: 1 fold
koff [3]: 0.0069 s⁻¹
kd, fold compared to g7B07 (BLI or SPR) [4]: 1 fold
Amplitude R0 [5]: 607 RU
koff [5]: 0.006 s⁻¹
kon [5]: 670000 M⁻¹ s⁻¹
Amplitude R0 [6]: 64 RU
koff [6]: 0.13 s⁻¹
kon [6]: 1.9e+06 M⁻¹ s⁻¹
Kd [7]: 11.1 nM
kd-fold drop vs g7B07 [7]: 1 fold
koff [7]: 0.0047 s⁻¹
kon [7]: 420000 M⁻¹ s⁻¹
Kd [8]: 9.08 nM
Kd [9]: 69.5 nM
